The target of this experiment is SARS-CoV-2 spike S1 domain (SARS-CoV-2, ancestral (Wuhan-Hu-1/WA1 …, UniProt P0DTC2)). Nature of the experiment: ELISA.

The text below walks through data of paper PMC10659930 (Cell Chemical Biology, 2023).

B1: ADPT02606 (antibody, V domains shown)
VH: EVQLVESGGGLVKPGGSLRLSCAASGFTFSSYSMNWVRQAPGKGLEWVSSITSSSGYMYYADSVKGRFTISRDNAKNSLYLQLNSLRAEDTAVYYCAKDSAFDLWEVRSYYYVMDVWGQGTTVTVSS
VL: not shown
For B1, the binding result is on record as “binds”.
